Measurements: article PMC4755656, “Interaction Analysis of a Two-Component System Using Nanodiscs” (PLoS ONE, 2016)

Key:
Conditions in all cases: both partners purified
[1] = target: T1, NT-647-labelled CpxA-Strep reconstituted in nanodiscs (CpxA-ND), as used for MST (E. coli, UniProt P0AE82 1-457, NT-647 dye (NHS NT-647 labeling kit; typically one primary amine per protein, position statistical)); assay: MST; as a3, with the non-hydrolysable ATP analogue AMP-PNP and MgCl2
T1 construct: CpxA sits in a lipid bilayer ringed by two MSP1D1 molecules (1:1 molar ratio of MSP to CpxA); also called labeled CpxA-Strep in nanodiscs; CpxA-Strep nanodiscs; source: E. coli BL21(DE3) pLysS, from pI1CpxA, purified (Strep-Tactin Superflow); labelled, then reconstituted into nanodiscs; not shown: Strep, C-terminal, kept
T1 sequence (looked up): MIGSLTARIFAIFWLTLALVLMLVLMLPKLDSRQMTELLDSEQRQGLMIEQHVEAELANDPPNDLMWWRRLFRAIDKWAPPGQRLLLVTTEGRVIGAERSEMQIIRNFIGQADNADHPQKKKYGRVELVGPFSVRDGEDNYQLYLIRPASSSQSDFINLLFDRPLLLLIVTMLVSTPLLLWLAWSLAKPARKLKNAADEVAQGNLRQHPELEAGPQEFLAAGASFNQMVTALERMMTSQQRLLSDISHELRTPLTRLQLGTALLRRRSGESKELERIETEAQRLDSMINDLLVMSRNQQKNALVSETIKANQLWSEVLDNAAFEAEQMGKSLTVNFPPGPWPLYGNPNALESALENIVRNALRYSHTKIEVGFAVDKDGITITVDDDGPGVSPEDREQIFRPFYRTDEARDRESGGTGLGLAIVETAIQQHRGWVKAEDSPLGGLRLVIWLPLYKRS

[2] = target: T1, NT-647-labelled CpxA-Strep …; assay: MST; as a3, with ADP and MgCl2 (phosphatase-competent state mimicked)
[3] = target: T1, NT-647-labelled CpxA-Strep …; assay: MST; as a3, CpxA-Strep nanodiscs supplemented with 500 µM ATP and 5 mM MgCl2 before mixing with CpxR
[4] = target: T2, phosphorylated CpxA in nanodiscs (CpxA-P-ND) (E. coli, UniProt P0AE82 1-457, phosphorylated (autophosphorylation with ATP and MgCl2); residue number not given); assay: SPR; as a1, but CpxA-P-ND injected in the presence of 2 mM Mg2+-ATP; constants from Interaction Map analysis (peak assigned to phosphorylated CpxA)
T2 construct: As m1, phosphorylated; also called phosphorylated CpxA-P-ND; source: E. coli BL21(DE3) pLysS, purified; reconstituted into nanodiscs; phosphorylated by adding ATP and MgCl2 (2 mM Mg2+-ATP present)
T2 sequence (looked up): T1 sequence (looked up)

[5] = target: T3, sensor histidine kinase CpxA reconstituted in nanodiscs (CpxA-ND), as used for SPR (E. coli, UniProt P0AE82 1-457); assay: SPR; His6-CpxR (50 nM, about 300 RU) captured on an anti-His antibody chip; CpxA-ND or empty ND injected at 25-1000 nM; HBS (10 mM HEPES pH 7.4, 150 mM NaCl), 25 °C; constants from Interaction Map analysis of the sensorgrams
T3 construct: CpxA sits in a lipid bilayer ringed by two MSP1D1 molecules whose His-tag was removed with TEV protease for SPR; one or two dimers per nanodisc; also called CpxA in nanodiscs; source: E. coli BL21(DE3) pLysS, purified from solubilised membranes; reconstituted into nanodiscs (MSP1D1, E. coli total lipid extract, beta-cyclodextrin)
T3 sequence (looked up): T1 sequence (looked up)

[6] = target: T1, NT-647-labelled CpxA-Strep …; assay: MST; NT-647-labelled CpxA-Strep in nanodiscs (or labelled MSP1D1 in empty nanodiscs) constant at 150 nM; unlabelled CpxR (0.007-237.5 µM) or CpxP (0.01-367.5 µM) titrated; HEPES-buffered saline (20 mM HEPES pH 7.5, 150 mM NaCl), RT; no nucleotide

B1: response regulator CpxR, His6-tagged (His6-CpxR) (natural protein, E. coli, UniProt P0AE88 1-232, looked up)
chain: MNKILLVDDDRELTSLLKELLEMEGFNVIVAHDGEQALDLLDDSIDLLLLDVMMPKKNGIDTLKALRQTHQTPVIMLTARGSELDRVLGLELGADDYLPKPFNDRELVARIRAILRRSHWSEQQQNNDNGSPTLEVDALVLNPGRQEASFDGQTLELTGTEFTLLYLLAQHLGQVVSREHLSQEVLGKRLTPFDRAIDMHISNLRRKLPDRKDGHPWFKTLRGRGYLMVSAS
notes: CpxR, response regulator of the Cpx two-component system, E. coli; not shown: His6, N-terminal, kept
B1 was tested. Which Kd [1] did it give?
Its Kd is 110 ± 20 nM.

And the Kd [2]?
Its Kd is 1600 ± 300 nM.

And the Kd [3]?
The Kd was 550 ± 60 nM.

And the Kd [4]?
The Kd was 24.8 nM.

What about the koff [4] of the same binder?
The koff was 4.38e-05 s⁻¹.

What about the kon [4] of the same binder?
The kon was 1760 M⁻¹ s⁻¹.

What about the Kd [5] of the same binder?
Its Kd is 236 nM.

What about the koff [5] of the same binder?
Its koff is 0.000473 s⁻¹.

And the kon [5]?
Its kon is 2010 M⁻¹ s⁻¹.

What about the Kd [6] of the same binder?
Its Kd is 3700 ± 500 nM.

B2: periplasmic accessory protein CpxP, His6-tagged (His6-CpxP) (natural protein, E. coli, UniProt P0AE85 22-166, looked up)
chain: AEVGSGDNWHPGEELTQRSTQSHMFDGISLTEHQRQQMRDLMQQARHEQPPVNVSELETMHRLVTAENFDENAVRAQAEKMANEQIARQVEMAKVRNQMYRLLTPEQQAVLNEKHQQRMEQLRDVTQWQKSSSLKLLSSSNSRSQ
notes: CpxP, periplasmic accessory protein of the Cpx two-component system, E. coli; The introduction says, citing other work, that CpxP acts as a homodimer
Which Kd [6] does the source give for B2 here?
Its Kd is > 100000 nM.
